Laboratory results: US8686115B2, “Compositions and methods for quantitatively monitoring lipids” (The Board of Trustees of the University of Illinois, priority 2009, dated 2014)
Where a chain is given by its changes, count along the chain named. In names and notes the source's numbering stands.

B1: Wild Type: ENTH domain of epsin 1, amino acids 1-158, SEQ ID NO:1 (protein)
chain: MSTSSLRRQMKNIVHNYSEAEIKVREATSNDPWGPSSSLMSEIADLTYNVVAFSEIMSMIWKRLNDHGKNWRHVYKAMTLMEYLIKTGSERVSQQCKENMYAVQTLKDFQYVDRDGKDQGVNVREKAKQLVALLRDEDRLREERAHALKTKEKLAQTA
modifications: ENTH domain of Epsin 1.
B2: C96A/S4W (eENTH): engineered ENTH domain of epsin 1 with substitutions M10C, C96A, S4W, SEQ ID NO:2 (protein)
chain: B1 chain with S4W, M10C, C96A
modifications: Modified ENTH domain of Epsin 1.

Assay: Equilibrium SPR binding to other phosphoinositide vesicles
Conditions: POPC/POPS/phosphoinositide (77:20:3) vesicles; no significant SPR response signal with injection of 1 μM protein

Row | Molecule | Kd [nM]
1 | B1 | > 1000
2 | B2 | > 1000
